Results as given in patent US20210079037A1 (TECHNISCHE UNIVERSIT T M NCHEN, published 2021).

What was measured:
[1] = target: T1, mouse anti-6×His antibody alkaline phosphatase (AP) conjugate (Arigo Biolaboratories); assay: ELISA: ProtL-ABD in a dilution series captured on coated HSA, mouse anti-6xHis Ig-AP conjugate (1:1000) applied, kept in daylight, AP activity as dA/dt [left graph]
T1 construct: also called mouse anti-6×His Ig-AP conjugate; Ig-AP conjugate
Description: (§1) ELISA was performed at ambient temperature in a 96-well Maxisorb microtiter plate (Nunc, Langenselbold, Germany).
(§2) Then, the wells were blocked with […] Roti-Block (Carl Roth, Karlsruhe, Germany) diluted 1:10 in ddH₂O for 1 h and washed three times with PBS containing 0.1% v/v Tween 20 (PBS/T). After that, the purified ProtL^Caf-ABD fusion protein from Example 11 was applied in a dilution series in PBS/T and incubated for 1 h to effect complex formation between the ABD moiety and the pre-adsorbed HSA. The wells were then washed three times with PBS/T and incubated with 50 μl of a 1:1000 dilution in PBS/T of the aforementioned mouse anti-6×His Ig-AP conjugate.

[2] = target: T2, recombinant human serum albumin (HSA) produced in rice (Sigma-Aldrich) (human, UniProt P02768 25-609); assay: ELISA, capture of the ABD fusion on HSA-coated plate
T2 construct: also called recombinant HSA
T2 sequence (P02768 25-609 limits assumed): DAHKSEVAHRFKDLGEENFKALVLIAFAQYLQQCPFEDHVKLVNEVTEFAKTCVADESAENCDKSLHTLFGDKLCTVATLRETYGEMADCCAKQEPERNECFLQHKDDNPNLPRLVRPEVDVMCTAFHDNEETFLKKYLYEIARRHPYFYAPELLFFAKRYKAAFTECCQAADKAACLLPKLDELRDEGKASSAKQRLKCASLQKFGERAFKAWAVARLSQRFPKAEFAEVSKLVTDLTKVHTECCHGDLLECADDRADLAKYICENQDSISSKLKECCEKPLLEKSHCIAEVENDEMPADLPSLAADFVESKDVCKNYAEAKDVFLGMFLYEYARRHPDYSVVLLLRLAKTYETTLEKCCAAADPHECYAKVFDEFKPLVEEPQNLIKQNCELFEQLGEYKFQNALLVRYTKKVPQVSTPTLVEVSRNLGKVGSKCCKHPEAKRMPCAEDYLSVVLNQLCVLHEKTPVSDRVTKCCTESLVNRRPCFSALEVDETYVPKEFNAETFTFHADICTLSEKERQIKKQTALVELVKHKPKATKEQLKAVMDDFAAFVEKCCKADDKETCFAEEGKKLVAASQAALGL
Description: as §1, §2

[3] = target: T1, mouse anti-6×His antibody alkaline …; assay: ELISA: ProtL-ABD in a dilution series captured on coated HSA, mouse anti-6xHis Ig-AP conjugate (1:1000) applied, UV light of 365 nm for 5 min before the washes, AP activity as dA/dt [left graph]
Description: as §1, §2

EC50 (read off the curve) [1]: ~40 nM
binding result [2]: binds
EC50 (read off the curve) [3]: ~40 nM
B1: ProtL-ABD fusion protein (other)
chain: MKEEVTIKVNLIFADGKTQTAEFKGTFEEATAKAYAYADLLAKENGEYTADLEDGGNTINIKFAGGAVDANSLAEAKVLANRELDKYGVSDYYKNLINNAKTVEGVKALIDEILAALP
notes: also called protein L-ABD fusion protein; unmodified ProtL-ABD
